Laboratory results: US20170298119A1

B1: ZC1 (antibody, V domains shown)
VH: QVQLVQSGAEVKKPGASVKVSCKASGYTFTSYGISWVRQATGQGLEWMGVIYPRSGNTYYAEKFRGRVTMTADKSISTAYMELSSLRSEDTAVYYCARENYGSVYWGQGTLVTVSS
VL: EIVMTQSPATLSVSPGERATLSCRASQSVGTAVAWYQQKPGQAPRLLIYSASNRYTGIPARFSGSGSGTEFTLTISSLQSEDFADYFCQQFYNYPFTFGGGTKVEIK
B2: ZC5 (antibody, V domains shown)
VH: QVQLVQSGAEVKKPGASVKVSCKASGYSFTTYGISWVRQAPGQGLEWMGVIYPRSGNTYYAQKLQGRVTMTTDTSTSTAYMELRSLRSDDTAVYYCARENYGSVYWGQGTLVTVSS
VL: EIVMTQSPATLSVSPGERATLSCRASQSVGTAVAWYQQKPGQAPRLLIYSASNRYTGIPARFSGSGSGTEFTLTISSLQSEDFADYFCQQFYNYPFTFGGGTKVEIK
B3: ZC6 (antibody, V domains shown)
VH: QVQLVQSGAEVKKPGASVKVSCKASGYSFTTYGISWVRQAPGQGLEWMGVIYPRSGNTYYAQKLQGRVTMTTDTSTSTAYMELRSLRSDDTAVYYCARENYGSVYWGQGTLVTVSS
VL: DIQMTQSPSSLSASVGDRVTITCKASQSVGTAVAWYQQKPGKAPKLLIYSASNRYTGVPSRFSGSGSGTDFTLTISSLQPEDFATYFCQQFSNYPFTFGGGTKVEIK
B4: ZC9 (antibody, V domains shown)
VH: QVQLVQSGAEVKKPGASVKVSCKASGYTFTSYGISWVRQAPGQGLEWMGVIYPRSGNTYYAQKLQGRVTMTTDTSTSTAYMELRSLRSDDTAVYYCARENYGSVYWGQGTLVTVSS
VL: EIVMTQSPATLSVSPGERATLSCRASQSVGTAVAWYQQKPGQAPRLLIYSASNRYTGIPARFSGSGSGTEFTLTISSLQSEDFADYFCQQFYNYPFTFGGGTKVEIK

Target: ZIKV strain MR766 (E protein on infectious virus) (Zika virus strain MR766) (UniProt Q32ZE1)
Experiment: cell-based or functional assay

Row | Binder | in vitro neutralization EC50 (foci counted on Vero cells)
1 | B1 | < 0.02 µg/mL
2 | B2 | < 0.02 µg/mL
3 | B3 | < 0.02 µg/mL
4 | B4 | < 0.02 µg/mL
